Read-outs that look alike come from different tables or passages of the source.
Legend:
[1] = tested on: C=C(O[C@@H]1C=C(C(=O)O)C=C[C@H]1O)C(=O)O; assay: Anthranilate synthase enzyme assay and kinetic analysis, P293A mutant; assay type: biochemical, Agrobacterium tumefaciens; settings: other: P293A, pH 7.0, 10 mM L-glutamine, 2.5–100 μM chorismate, 25.0 °C
From the text: (§1) Site directed mutagenesis was used to generate ten single amino acid substitutions six sites. The mutations were introduced into the Agrobacterium tumefaciens AS in pMON34705 using the QuikChange™ Site-Directed Mutagenesis Kit (Stratagene). The primers used for site directed mutagenesis were SEQ ID NO:9–42 (FIG. 7; F=forward, R=reverse). Each primer sequence is specific for alteration of the nucleic acid at a specific location in the sequence and thus changing the encoded codon to code for a new amino acid. For example, S51C designates a change from serine to cysteine at amino acid position 51 in the Agrobacterium tumefaciens AS peptide sequence.
(§2) Following mutagenesis the sequence of the entire gene was reconfirmed and the variants expressed and purified from E. coli as described below for the wild type enzyme. The resultant plasmids comprising mutant Agrobacterium tumefaciens AS are suitably cloned into a plasmid for overproduction of protein using the T7 expression system as described in Example 1.
(§3) Agrobacterium tumefaciens AS wild type and mutant enzymes were expressed in E. coli as described in Example 1. The purification of all the Agrobacterium tumefaciens AS enzymes, including wild type and mutants therof, was performed at 4° C. The cells (approximate wet weight of 1 g) were suspended in 20 ml of purification buffer (50 mM potassium phosphate, pH […], 10 mM 2-mercaptoethanol, 10% glycerol) and lysed by ultrasonication (Branson sonifier Cell Disruptor, W185). Supernatant was collected after centrifugation of the homogenate at 20,000× g for 15 min. The supernatant was subjected to ammonium sulfate fractionation (30 to 65% saturation). The precipitate was collected after centrifugation at 20,000× g for […] and dissolved in 3 ml of the purification buffer and then loaded as a whole on an Econo-Pac 10DG desalting column, pre-equilibrated with the same buffer. Fractions containing the enzyme were detected by the developed assay and pooled. The pooled enzyme (4.3 mls) was loaded on a 10 ml DEAE Sephacel (Pharmacia Biotech) column (1.5×7.5 cm) equilibrated with the same buffer. The column was washed with 30 ml of the purification buffer and the enzyme was eluted with 30 ml of 50 mM NaCl in the same buffer. Fractions containing high AS activity were pooled and precipitated by 65% ammonium sulfate saturation and isolated and desalted as above. Fractions containing the enzyme were pooled and stored at −80° C.
(§4) The standard assay for Agrobacterium tumefaciens AS was performed at 25° C. in an assay buffer containing 100 mM potassium phosphate, pH 7.0, 1 0 mM MgCl2, 1 mM dithiothreitol, 200 μM chorismate and 10 mM L-glutamine. The reaction was started by adding 30 μl of enzyme to the reaction mixture and mixing. The formation of anthranilate was directly monitored by the absorbance increase at […] for 3 min. Initial rate of reaction was calculated as unit absorbance increase per second based on the slope of the absorbance change over the reaction time. Km for chorismate (Km^Cho) was determined in the total volume of 1 ml assay buffer containing 100 mM potassium phosphate, pH 7.0, 10 mM MgCl2, 1 mM dithiothreitol with 10 mM L-glutamine and varying the concentration of chorismate between 2.5–100 μM chorismate. […] Kinetic parameters and IC50 of AS were calculated after fitting the data to a non-linear regression program (GraFit).

NC(=O)CC[C@H](N)C(=O)O [2] = assay: as above; assay type: biochemical, Agrobacterium tumefaciens; settings: other: P293A, pH 7.0, 200 μM chorismate, 0.1–2 mM L-glutamine, 25.0 °C
From the text: as §1, §2, §3, §4

[3] = tested on: C=C(O[C@@H]1C=C(C(=O)O)C=C[C@H]1O)C(=O)O; assay: Anthranilate synthase enzyme assay and kinetic analysis, P293G mutant; assay type: biochemical, Agrobacterium tumefaciens; settings: other: P293G, pH 7.0, 10 mM L-glutamine, 2.5–100 μM chorismate, 25.0 °C
From the text: as §1, §2, §3, §4

NC(=O)CC[C@H](N)C(=O)O [4] = assay: as above; assay type: biochemical, Agrobacterium tumefaciens; settings: other: P293G, pH 7.0, 200 μM chorismate, 0.1–2 mM L-glutamine, 25.0 °C
From the text: as §1, §2, §3, §4

[5] = tested on: C=C(O[C@@H]1C=C(C(=O)O)C=C[C@H]1O)C(=O)O; assay: Anthranilate synthase enzyme assay and kinetic analysis, S50K mutant; assay type: biochemical, Agrobacterium tumefaciens; settings: other: S50K, pH 7.0, 10 mM L-glutamine, 2.5–100 μM chorismate, 25.0 °C
From the text: as §1, §2, §3, §4

NC(=O)CC[C@H](N)C(=O)O [6] = assay: as above; assay type: biochemical, Agrobacterium tumefaciens; settings: other: S50K, pH 7.0, 200 μM chorismate, 0.1–2 mM L-glutamine, 25.0 °C
From the text: as §1, §2, §3, §4

[7] = tested on: C=C(O[C@@H]1C=C(C(=O)O)C=C[C@H]1O)C(=O)O; assay: Anthranilate synthase enzyme assay and kinetic analysis, N52F mutant; assay type: biochemical, Agrobacterium tumefaciens; settings: other: N52F, pH 7.0, 10 mM L-glutamine, 2.5–100 μM chorismate, 25.0 °C
From the text: as §1, §2, §3, §4

NC(=O)CC[C@H](N)C(=O)O [8] = assay: as above; assay type: biochemical, Agrobacterium tumefaciens; settings: other: N52F, pH 7.0, 200 μM chorismate, 0.1–2 mM L-glutamine, 25.0 °C
From the text: as §1, §2, §3, §4

[9] = tested on: C=C(O[C@@H]1C=C(C(=O)O)C=C[C@H]1O)C(=O)O; assay: Anthranilate synthase enzyme assay and kinetic analysis, S51F mutant; assay type: biochemical, Agrobacterium tumefaciens; settings: other: S51F, pH 7.0, 10 mM L-glutamine, 2.5–100 μM chorismate, 25.0 °C
From the text: as §1, §2, §3, §4

NC(=O)CC[C@H](N)C(=O)O [10] = assay: as above; assay type: biochemical, Agrobacterium tumefaciens; settings: other: S51F, pH 7.0, 200 μM chorismate, 0.1–2 mM L-glutamine, 25.0 °C
From the text: as §1, §2, §3, §4

[11] = tested on: C=C(O[C@@H]1C=C(C(=O)O)C=C[C@H]1O)C(=O)O; assay: Anthranilate synthase enzyme assay and kinetic analysis, wild type; assay type: biochemical, Agrobacterium tumefaciens; settings: other: wild type, 25° C., pH 7.0, 10 mM L-glutamine, 2.5–100 μM chorismate
Method: as §3
(§5) The standard assay for Agrobacterium tumefaciens AS was performed at 25° C. in an assay buffer containing 100 mM potassium phosphate, pH 7.0, 1 0 mM MgCl2, 1 mM dithiothreitol, 200 μM chorismate and 10 mM L-glutamine. The reaction was started by adding 30 μl of enzyme to the reaction mixture and mixing. The formation of anthranilate was directly monitored by the absorbance increase at […] for 3 min. Initial rate of reaction was calculated as unit absorbance increase per second based on the slope of the absorbance change over the reaction time. Km for chorismate (Km^Cho) was determined in the total volume of 1 ml assay buffer containing 100 mM potassium phosphate, pH 7.0, 10 mM MgCl2, 1 mM dithiothreitol with 10 mM L-glutamine and varying the concentration of chorismate between 2.5–100 μM chorismate. The Km for glutamine (Km^Gln) was determined in the total volume of 1 ml assay buffer containing 100 mM potassium phosphate, pH 7.0, 10 mM MgCl2, 1 mM dithiothreitol with 200 μM chorismate and varying the concentration of L-glutamine between 0.1–2 mM L-glutamine. IC50 for tryptophan (IC50TrP) was determined with in the total volume of 1 ml assay buffer containing 100 mM potassium phosphate, pH 7.0, 10 mM MgCl2, 1 mM dithiothreitol, 10 mM L-glutamine, 200 μM chorismate and varying the concentration of L-tryptophan between 0.1–10 mM L-tryptophan. Kinetic parameters and IC50 of AS were calculated after fitting the data to a non-linear regression program (GraFit).

NC(=O)CC[C@H](N)C(=O)O [12] = assay: as above; assay type: biochemical, Agrobacterium tumefaciens; settings: other: wild type, pH 7.0, 200 μM chorismate, 0.1–2 mM L-glutamine, 25.0 °C
Method: as §3, §5

[13] = tested on: C=C(O[C@@H]1C=C(C(=O)O)C=C[C@H]1O)C(=O)O; assay: Anthranilate synthase enzyme assay and kinetic analysis, S51C mutant; assay type: biochemical, Agrobacterium tumefaciens; settings: other: S51C, pH 7.0, 10 mM L-glutamine, 2.5–100 μM chorismate, 25.0 °C
From the text: as §1, §2, §3, §4

NC(=O)CC[C@H](N)C(=O)O [14] = assay: as above; assay type: biochemical, Agrobacterium tumefaciens; settings: other: S51C, pH 7.0, 200 μM chorismate, 0.1–2 mM L-glutamine, 25.0 °C
From the text: as §1, §2, §3, §4

[15] = tested on: Agrobacterium tumefaciens AS; assay: Anthranilate synthase enzyme assay and kinetic analysis of purified enzymes; assay type: biochemical; settings: for IC50: inhibition by L-tryptophan
Method: as §3, §5

[16] = Km for chorismate, 10 mM L-glutamine, pH 7.0, 25° C., read-out: Km^Cho
[17] = Km for glutamine, 200 μM chorismate, pH 7.0, read-out: Km^Gln
[18] = 10 mM L-glutamine, 200 μM chorismate

Molecule: Agrobacterium tumefaciens anthranilate synthase variant P293A, SEQ ID NO:63 (Agrobacterium fabrum str. C58; P293A)
- Km [1]: 24 µM
- kcat [1]: 0.35 s⁻¹
- kcat/Km [1]: 14600 M⁻¹ s⁻¹
- Km (NC(=O)CC[C@H](N)C(=O)O [2]): 160 µM

Molecule: Agrobacterium tumefaciens anthranilate synthase variant P293G, SEQ ID NO:64 (Agrobacterium fabrum str. C58; P293G)
- Km [3]: 33 µM
- kcat [3]: 0.48 s⁻¹
- kcat/Km [3]: 14500 M⁻¹ s⁻¹
- Km (NC(=O)CC[C@H](N)C(=O)O [4]): 70 µM

Molecule: Agrobacterium tumefaciens anthranilate synthase variant S50K, SEQ ID NO:69 (Agrobacterium fabrum str. C58; S50K)
- Km [5]: 13 µM
- kcat [5]: 0.13 s⁻¹
- kcat/Km [5]: 10000 M⁻¹ s⁻¹
- Km (NC(=O)CC[C@H](N)C(=O)O [6]): 10 µM

Molecule: Agrobacterium tumefaciens anthranilate synthase variant N52F, SEQ ID NO:62 (Agrobacterium fabrum str. C58; N52F)
- Km [7]: 5.5 µM
- kcat [7]: 0.21 s⁻¹
- kcat/Km [7]: 38200 M⁻¹ s⁻¹
- Km (NC(=O)CC[C@H](N)C(=O)O [8]): 40 µM

Molecule: Agrobacterium tumefaciens anthranilate synthase variant S51F, SEQ ID NO:60 (Agrobacterium fabrum str. C58; S51F)
- Km [9]: 10 µM
- kcat [9]: 0.08 s⁻¹
- kcat/Km [9]: 8000 M⁻¹ s⁻¹
- Km (NC(=O)CC[C@H](N)C(=O)O [10]): 60 µM

Molecule: Agrobacterium tumefaciens anthranilate synthase (AgroAS), wild type, SEQ ID NO:4 (Agrobacterium fabrum str. C58)
- Km [11]: 8.0 µM
- kcat [11]: 0.43 s⁻¹
- kcat/Km [11]: 53700 M⁻¹ s⁻¹
- Km (NC(=O)CC[C@H](N)C(=O)O [12]): 110 µM

Molecule: Agrobacterium tumefaciens anthranilate synthase variant S51C, SEQ ID NO:61 (Agrobacterium fabrum str. C58; S51C)
- Km [13]: 2.8 µM
- kcat [13]: 0.15 s⁻¹
- kcat/Km [13]: 53600 M⁻¹ s⁻¹
- Km (NC(=O)CC[C@H](N)C(=O)O [14]): 80 µM

B1: F298A (protein)
chain: MVTIIQDDGAETYETKGGIQVSRKRRPTDYANAIDNYIEKLDSHRGAVFSSNYEYPGRYTRWDTAIVDPPLGISCFGRKMWIEAYNGRGEVLLDFITEKLKATPDLTLGASSTRRLDLTVNEPDRVFTEEERSKIPTVFTALRAIVDLFYSSADSAIGLFGAFGYDLAFQFDAIKLSLARPEDQRDMVLFLPDEILVVDHYSAKAWIDRYDFEKDGMTTDGKSSDITPDPFKTTDTIPPKGDHRPGEYSELVVKAKESFRRGDLFEVVPGQKFMERCESNPSAISRRLKAINPSPYSAFINLGDQEYLVGASPEMFVRVSGRRIETCPISGTIKRGDDPIADSEQILKLLNSKKDESELTMCSDVDRNDKSRVCEPGSVKVIGRRQIEMYSRLIHTVDHIEGRLRDDMDAFDGFLSHAWAVTVTGAPKLWAMRFIEGHEKSPRAWYGGAIGMVGFNGDMNTGLTLRTIRIKDGIAEVRAGATLLNDSNPQEEEAETELKASAMISAIRDAKGTNSAATKRDAAKVGTGVKILLVDHEDSFVHTLANYFRQTGATVSTVRSPVAADVFDRFQPDLVVLSPGPGSPTDFDCKATIKAARARDLPIFGVCLGLQALAEAYGGELRQLAVPMHGKPSRIRVLEPGLVFSGLGKEVTVGRYHSIFADPATLPRDFIITAESEDGTIMGIEHAKEPVAAVQFHPESIMTLGQDAGMRMIENVVVHLTRKAKTKAA
- kcat [15]: 0.46 s⁻¹
- Km [15, 16]: 9.2 µM
- Km [15, 17]: 100 µM
- IC50 [15, 18]: 5.5 µM

B2: F298W (protein)
chain: MVTIIQDDGAETYETKGGIQVSRKRRPTDYANAIDNYIEKLDSHRGAVFSSNYEYPGRYTRWDTAIVDPPLGISCFGRKMWIEAYNGRGEVLLDFITEKLKATPDLTLGASSTRRLDLTVNEPDRVFTEEERSKIPTVFTALRAIVDLFYSSADSAIGLFGAFGYDLAFQFDAIKLSLARPEDQRDMVLFLPDEILVVDHYSAKAWIDRYDFEKDGMTTDGKSSDITPDPFKTTDTIPPKGDHRPGEYSELVVKAKESFRRGDLFEVVPGQKFMERCESNPSAISRRLKAINPSPYSWFINLGDQEYLVGASPEMFVRVSGRRIETCPISGTIKRGDDPIADSEQILKLLNSKKDESELTMCSDVDRNDKSRVCEPGSVKVIGRRQIEMYSRLIHTVDHIEGRLRDDMDAFDGFLSHAWAVTVTGAPKLWAMRFIEGHEKSPRAWYGGAIGMVGFNGDMNTGLTLRTIRIKDGIAEVRAGATLLNDSNPQEEEAETELKASAMISAIRDAKGTNSAATKRDAAKVGTGVKILLVDHEDSFVHTLANYFRQTGATVSTVRSPVAADVFDRFQPDLVVLSPGPGSPTDFDCKATIKAARARDLPIFGVCLGLQALAEAYGGELRQLAVPMHGKPSRIRVLEPGLVFSGLGKEVTVGRYHSIFADPATLPRDFIITAESEDGTIMGIEHAKEPVAAVQFHPESIMTLGQDAGMRMIENVVVHLTRKAKTKAA
- kcat [15]: 0.44 s⁻¹
- Km [15, 16]: 18 µM
- Km [15, 17]: 140 µM
- IC50 [15, 18]: 450 µM
